Entries after “also recorded” stand apart in the source; their conditions may differ.
Tests used:
[1] = target: T1, Uch-L1 (Mus musculus, UniProt Q9R0P9); assay: Hydrolase (ubiquitin-AMC) assay on hippocampal slices; format: cell-based
T1 construct: hippocampal tissue was treated with tissue protein extraction reagent; from tissue; host or cells: mouse hippocampal slices (C57/BL6 or APP/PS1 and WT littermates)
T1 sequence (Q9R0P9 1-220): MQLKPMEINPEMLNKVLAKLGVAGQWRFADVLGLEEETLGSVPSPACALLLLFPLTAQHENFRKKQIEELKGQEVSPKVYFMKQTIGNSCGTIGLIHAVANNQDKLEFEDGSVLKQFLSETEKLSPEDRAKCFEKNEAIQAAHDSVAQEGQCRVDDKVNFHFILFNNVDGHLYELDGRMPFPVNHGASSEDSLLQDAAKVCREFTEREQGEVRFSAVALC
Method: (§1) Slice preparation. Mice were decapitated and their hippocampi removed. […] Slices were permitted to recover from cutting for at least 90 min. before recordings. For experiments with lactacystin, slices were perfused with the drug or vehicle for 2 to 4 hrs in a small volume (10 ml) chamber.
(§2) Briefly, hippocampal tissue was treated with tissue protein extraction reagent (T-PER; Pierce) containing freshly added EDTA-free protease inhibitors. Homogenate was centrifuged at 10,000 rpm for 5 min. Protein concentration was measured in the supernatant using the BCA protein assay reagent. In some experiments hydrolysis was initiated by adding 10 μl of 20 nM Uch-L1 or Uch-L3 (Boston Biochem). The hydrolase assay was performed using fluorogenic ubiquitin-7-amino-4-methylcoumarin (ubiquitin-AMC) (Boston Biochem) as a substrate. The substrate was diluted in assay buffer (50 mM Tris-HCL, 0.5 mM EDTA, 5 mM dithiothreitol and 0.1 mg/ml ovalbumin, pH 7.6). Each reaction mixture containing 400 nM substrate and 100 μg enzyme sample was incubated for 5 min at room temperature. The reaction was monitored using a fluorescence spectrophotometer (CytoFluor Series 4000, ABI Inc) at 25° C. The free AMC fluorophore was excited at 380 nm and measured at 460 nm. […] In some experiments, hydrolysis was also measured on the soluble and insoluble fractions (FIG. 28D). In a group of experiments hydrolysis was measured by mixing ubiquitin-AMC with 20 nM TAT fusion proteins (FIG. 27C). In other experiments the substrate was Nedd8-AMC (Boston Biochem).

[2] = test system: Uch-L1; assay: as above; format: cell-based, mouse
Method: as §1, §2

[3] = test system: PKA; assay: PKA kinase activity in hippocampal cultures; format: cell-based, rat; conditions: fusion protein 100 nM 24 hrs; for basal PKA activity in Aβ-treated cultures: Aβ 24 hrs
Method: PKA Kinase Activity Measurement. Primary hippocampal neurons from E18 rats were dissociated and cultured as described (Vitolo et al, Proc Natl Acad Sci USA 99:13217-13221 (2002)). […]
Hippocampal slices were lysed with RIPA lysis buffer and homogenized by Dounce homogenizer on ice. 5 DIV primary cultures were treated for 24 hrs and cells were lysed with RIPA lysis buffer.
Levels of intracellular PKA kinase activity were measured by PKA Kinase Activity Assay Kit (Stressxpress) according to manufacturer's instructions.
Preparation of Cell Cultures. Hippocampal cell cultures were prepared as previously described (Vitolo et al., 2002). In cell culture experiments fetuses at embryonic day 18 from timed pregnant Sprague-Dawley rats (Taconic Farms) were used. Fetuses were sacrificed and the hippocampi removed. Neurons were then dissociated, plated on 6 well-plates coated with poly-L-lysine and maintained in a defined serum-free medium containing minimum essential medium supplemented with N-2, glucose, albumin, pyruvic acid, antibiotics and antimycotics. […] 5 DIV cells were used for the experiments.

[4] = test system: PKA RIIα; assay: PKA RIIα levels in hippocampal slices (Western blot); format: cell-based, mouse; conditions: for Aβ-induced increase in PKA RIIα levels (words): fusion protein 20 nM 1 hr, Aβ 200 nM 20 min
Method: (§3) Western Blotting: Protein levels were assessed using standard procedures. Protein extraction was performed using buffer with and without detergent. For the extraction of protein using detergent, hippocampal tissues and cultured hippocampal neurons (5 DIV) were homogenized in RIPA buffer (50 mM Tris-HCl pH 7.4, 1% Triton X-100, 1% sodium deoxycholate, 0.1% SDS, 150 mM sodium chloride, 10 mM sodium fluoride, 30 mM sodium pyrophosphate, 50 mM sodium orthovanadate) containing 1× complete protease inhibitor (Roche) and 1 mM phenylmethylsulfonyl fluoride (PMSF). For extraction of proteins without detergent, hippocampal extracts were homogenized with disposable dounce homogenizers in buffer A, containing 10 mM HEPES pH 7.3, 300 mM sucrose, protease 1× complete protease inhibitor (Roche) and PMSF. After centrifugation at 10,000×g supernatant proteins were resolved on a 8% or 4-20% gradient Tris-Glycine gel, transferred onto PVDF or nitrocellulose membrane and blocked in 5% skim milk in PBS-Tween 0.1% (PBS-T). Membranes were probed with primary antibodies, and after washing with PBS-T incubated with an appropriate HRP-conjugated secondary antibody. The following antibodies were used: mouse monoclonal anti-ubiquitin (Chemicon), rabbit polyclonal anti-pCREB (Upstate Biotech.), rabbit polyclonal anti-PKA-RIIα (Santa Cruz Biotech. Inc), mouse monoclonal anti-Uch-L1 (Novocastra), monoclonal mouse anti-HA (Santa Cruz Biotech. Inc), and anti-PKA IIα. Detection was performed using HRP-conjugated secondary antibodies (Pierce, Rockford, Ill.). To control loading and transfer, protein immunoreactivities were normalized against total extracellular signal-regulated protein kinases (ERK1/2) levels with a rabbit analyzed using a rabbit polyclonal anti-ERK1/2 antibody (Cell Signaling Technology, Inc). NIH IMAGE was used to analyze the scanned blots and quantify the intensity of the protein signals.

[5] = test system: cAMP; assay: Intracellular cAMP enzyme immunoassay; format: cell-based, rat; conditions: fusion protein 100 nM 24 hrs, Aβ
Method: Intracellular cAMP Enzyme Immunoassay. Hippocampal neurons from E18 rats were dissociated and plated on poly-L-lysine coated 6-well plates in minimum essential medium supplemented with N-2, glucose, albumin, pyruvic acid, antibiotics and antimycotics. […] After 24 hours, cell lysates were obtained and intracellular cAMP levels were measured using cAMP Biotrak Enzymeimmunoassay (EIA) System (Amersham) in accordance with manufacturer's instructions.

[6] = Native gel dimer formation; format: physicochemical
[7] = test system: hippocampal slices; format: cell-based, mouse
Method: as §3, with “Membranes were probed with primary antibodies, and after washing with PBS-T incubated with an appropriate HRP-conjugated secondary antibody. The following antibodies were used: mouse monoclonal anti-ubiquitin (Chemicon), rabbit polyclonal anti-pCREB (Upstate Biotech.), rabbit polyclonal anti-PKA-RIIα (Santa Cruz Biotech. Inc), mouse monoclonal anti-Uch-L1 (Novocastra), monoclonal mouse anti-HA (Santa Cruz Biotech. Inc), and anti-PKA IIα. Detection was performed using HRP-conjugated secondary antibodies (Pierce, Rockford, Ill.).” left out

[8] = listed as TAT-Uch-L1 fusion protein
[9] = listed as Uch-L1 fusion protein

CC(=O)O/N=C1\C(=O)N(Cc2cc(Cl)ccc2Cl)c2ccc(Cl)cc21 [LDN-57444, reference compound]
reduction of enzymatic activity ([1]; 1 μM LDN): 20% | reduction of enzymatic activity ([1]; 2.7 μM LDN, 2-4 hour perfusion): ~40% | inhibition of enzymatic activity ([1]; 5 μM LDN, 15 minute perfusion): 20% | reduction of activity ([1]; 5 μM LDN, 2 hour exposure): 70% | Maximal inhibition of Uch activity ([1]; 5 μM LDN, one hour (60 min)): 70% | Uch activity in APP/PS1 slices ([1]; 5 μM for 2 hrs): further reduced Uch activity | Ubiquitin-C-Terminal hydrolase activity ([1]; 5 μM for 4 hrs): decreased | Uch-L1 hydrolase activity ([1]; LDN-57444 perfusion (5 μM, 4 hrs)): less than 30 % of vehicle-treated controls | enzymatic activity ([1]; WT and APP/PS1 slices, 5 μM LDN, 2 hours): ~70 % of values in vehicle treated WT slices

B1: TAT-HA-Uch-L1: fusion protein: 11-amino acid transduction domain of HIV-transactivator protein (TAT) fused with an HA tag and human Uch-L1 (protein)
chain: MQLKPMEINPEMLNKVLSRLGVAGQWRFVDVLGLEEESLGSVPAPACALLLLFPLTAQHENFRKKQIEELKGQEVSPKVYFMKQTIGNSCGTIGLIHAVANNQDKLGFEDGSVLKQFLSETEKMSPEDRAKCFEKNEAIQAAHDAVAQEGQCRVDDKVNFHFILFNNVDGHLYELDGRMPFPVNHGASSEDTLLKDAAKVCREFTEREQGEVRFSAVALCKAA
modifications: left off: small tags and cut ends
Uch activity ([2]; 20 nM fusion protein 1 hr pre-incubation, 200 nM Aβ 20 min): normal monoubiquitin levels and Uch activity are maintained; also recorded: re-established normal ubiquitin-C-terminal hydrolase activity; also recorded: re-established normal Uch activity | ubiquitin-c-terminal hydrolase enzymatic activity ([2]; 20 nM fusion protein 1 hr, then 200 nM Aβ plus fusion protein): 98.40±5.76 % of TAT-HA treated WT slices | enzymatic (Uch) activity ([2]; fusion protein alone): slight increase | enzymatic activity ([2]; fusion protein alone for 1 hr): 148.63±12.01 % of TAT-HA treated slices | Uch activity ([2]; slices from 4 month APP/PS1 mice, 20 nM for 1 hr): Uch activity is restored | glutamate-induced increase in PKA activity in Aβ-treated cultures ([3]; 3 μM Aβ 24 hrs, glutamate 50 μM 15 min): rescued the increase in PKA activity; also recorded: rescued the glutamate-induced increase in kinase activity | basal PKA activity in Aβ-treated cultures [3]: reversing the Aβ-induced decrease in basal PKA activity; also recorded: re-established; also recorded: increased levels of kinase activity | basal PKA activity in Aβ-treated cultures [3, 8]: re-establishes normal levels | IIα regulatory subunit levels ([4]; 20 nM TAT-HA-Uch-L1 1 hr pretreatment plus Aβ42): 121.03±14.10 % of control | Aβ-induced increase in PKA RIIα levels (words) [4]: blocked by pretreatment; also recorded: re-established normal levels of regulatory subunit; also recorded: re-established normal levels of RIIα | Aβ-induced increase in PKA RIIα levels (words) [4, 8]: blocks the increase | Aβ-induced increase in PKA RIIα levels (words) [4, 9]: blocked | cAMP levels in Aβ-treated cultured hippocampal neurons (words) [5]: remained low; also recorded: did not affect the decrease in cAMP levels; also recorded: does not rescue the decrease in cAMP levels | cAMP levels in Aβ-treated cultured hippocampal neurons (words) [5, 8]: does not re-establish normal cAMP levels | cAMP levels in Aβ-treated cultured hippocampal neurons (words) [5, 9]: does not rescue the decrease in cAMP levels | dimer formation ([6]; 1 μM): no dimer formation was detected; also recorded: No dimers were detected | dimer formation ([6]; 5 μM): Dimers were seen at 5 μM; also recorded: A weak band corresponding to dimers and other oligomeric species was detected | localisation in soluble/insoluble protein fractions [7]: localized to the soluble fraction

Source: patent publication US7947279B2, “Peptide having hydrolase activity” (The Trustees of Columbia University in the City of New York, priority 2005, dated 2011)
